Like-named read-outs stand apart in the source and are kept apart here. Blank lines part the entries; values can stand above or below the binder they belong to.
How the values were obtained:
[1] = target: Paclitaxel-stabilized microtubules (bovine brain αβ-tubulin) (bovine) (UniProt Q6B856)
[2] = target: Paclitaxel-stabilized microtubules (bovine brain αβ-tubulin) (bovine) (UniProt Q6B856); test: co-sedimentation; 0.5 μM Cin8-His, 0–2 μM microtubules, 1 mM ATP plus ATP regeneration system, low ionic strength (21 mM); fraction bound by NADH-coupled assay; apparent constants
[3] = target: Paclitaxel-stabilized microtubules (bovine brain αβ-tubulin) (bovine) (UniProt Q6B856); test: co-sedimentation; 0.5 μM Cin8-His, 0–2 μM microtubules, 1 mM ATP plus ATP regeneration system, high ionic strength (88 mM); fraction bound by NADH-coupled assay; apparent constants
[4] = target: Paclitaxel-stabilized microtubules (bovine brain αβ-tubulin) (bovine) (UniProt Q6B856); test: co-sedimentation; 0.5 μM Cin8-His, 0–2 μM microtubules, 1 mM ATP plus ATP regeneration system, low ionic strength (21 mM); fraction bound by NADH-coupled assay; apparent constants; remark: listed apart in the source
[5] = target: Paclitaxel-stabilized microtubules (bovine brain αβ-tubulin) (bovine) (UniProt Q6B856); test: co-sedimentation; 0.5 μM Cin8-His, 0–2 μM microtubules, 1 mM ATP plus ATP regeneration system, high ionic strength (88 mM); fraction bound by NADH-coupled assay; apparent constants; remark: listed apart in the source
[6] = target: Paclitaxel-stabilized microtubules (bovine brain αβ-tubulin) (bovine) (UniProt Q6B856); test: co-sedimentation; Cin8-His with microtubules, no added nucleotide, low ionic strength (21 mM), 298 K; Cin8 left in the supernatant measured by the NADH coupled ATPase assay; apparent constants
[7] = target: Paclitaxel-stabilized microtubules (bovine brain αβ-tubulin) (bovine) (UniProt Q6B856); test: co-sedimentation; Cin8-His with microtubules, no added nucleotide, high ionic strength (88 mM), 298 K; Cin8 left in the supernatant measured by the NADH coupled ATPase assay; apparent constants
[8] = target: Pre-formed microtubule·Eg5 complex (bovine | human) (UniProt Q6B856); test: stopped-flow light scattering; 0.5–5 μM Cin8-His rapidly mixed with a pre-formed microtubule·Eg5 complex (0.5 μM Eg5, 0.5 μM microtubules), low ionic strength, 298 K; amplitudes fit to Equation 6, observed rates to Equation 8
[9] = target: Pre-formed microtubule·Eg5 complex (bovine | human) (UniProt Q6B856); test: as above; remark: listed apart in the source
[10] = target: Paclitaxel-stabilized microtubules (bovine brain αβ-tubulin) (bovine) (UniProt Q6B856); test: co-sedimentation; 4 μM Cin8-trx, 1 μM microtubules, 20 μM paclitaxel; ATPase buffer, without glycerol, plus DTT, PIPES pH 6.9, sodium phosphate pH 7.2, 10 mM NaCl or 10 mM potassium acetate
[11] = target: Paclitaxel-stabilized microtubules (bovine brain αβ-tubulin) (bovine) (UniProt Q6B856); test: co-sedimentation; competition: 0–14 μM Cin8-trx added to 2 μM Eg5 and 2 μM microtubules, 60 min at 298 K before centrifugation, low ionic strength; fraction Eg5 bound fit to Equation 5 with Kd,Eg5 fixed; apparent
[12] = target: Paclitaxel-stabilized microtubules (bovine brain αβ-tubulin) (bovine) (UniProt Q6B856); test: co-sedimentation; competition: 0–14 μM Cin8-trx added to 2 μM Eg5 and 2 μM microtubules, 60 min at 298 K before centrifugation, high ionic strength; fraction Eg5 bound fit to Equation 5 with Kd,Eg5 fixed; apparent
[13] = target: Paclitaxel-stabilized microtubules (bovine brain αβ-tubulin) (bovine) (UniProt Q6B856); test: co-sedimentation; 2 μM kinesin, 0–4 μM paclitaxel-stabilised microtubules, no added nucleotide, high ionic strength (88 mM; ATPase buffer with 75 mM KCl), 298 K, 100,000 × g 30 min; supernatant and pellet by SDS-PAGE; apparent constants, fit to Equation 3
[14] = target: Paclitaxel-stabilized microtubules (bovine brain αβ-tubulin) (bovine) (UniProt Q6B856); test: co-sedimentation; 2 μM kinesin, 0–4 μM paclitaxel-stabilised microtubules, no added nucleotide, low ionic strength (21 mM; ATPase buffer with 7.5 mM KCl), 298 K, 100,000 × g 30 min; supernatant and pellet by SDS-PAGE; apparent constants, fit to Equation 3
[15] = target: Paclitaxel-stabilized microtubules (bovine brain αβ-tubulin) (bovine) (UniProt Q6B856); test: co-sedimentation; 2 μM kinesin, 0–4 μM paclitaxel-stabilised microtubules, no added nucleotide, high ionic strength (88 mM; ATPase buffer with 75 mM KCl), 298 K, 100,000 × g 30 min; supernatant and pellet by SDS-PAGE; apparent constants, fit to Equation 3; remark: listed apart in the source
[16] = target: Paclitaxel-stabilized microtubules (bovine brain αβ-tubulin) (bovine) (UniProt Q6B856); test: co-sedimentation; 2 μM kinesin, 0–4 μM paclitaxel-stabilised microtubules, no added nucleotide, low ionic strength (21 mM; ATPase buffer with 7.5 mM KCl), 298 K, 100,000 × g 30 min; supernatant and pellet by SDS-PAGE; apparent constants, fit to Equation 3; remark: listed apart in the source
[17] = substrate: Nc1ncnc2c1ncn2[C@@H]1O[C@H](COP(=O)(O)OP(=O)(O)OP(=O)(O)O)[C@@H](O)[C@H]1O; test: NADH-coupled steady-state ATPase assay; type: biochemical, Saccharomyces cerevisiae; details: low ionic strength (21 mM), 20 mM HEPES pH 7.2, 2 mM MgCl2, 7.5 mM KCl, 20% glycerol, 298 K, 25.0 °C
Text: NADH-coupled steady-state ATPase assay on Cin8-His (Cin8 motor domain)

[18] = microtubule-stimulated (2 μM bovine brain microtubules, paclitaxel-stabilized)

K0.5,MT of the microtubule-stimulated steady-state ATPase (NADH coupled assay), 21 mM ionic strength [1]: 0.08 µM
K0.5,MT of the microtubule-stimulated steady-state ATPase (NADH coupled assay), 88 mM ionic strength [1]: 1.8 µM
Kd [2]: 140 nM
stoichiometry N [2]: 3.7
Kd [3]: 960 nM
stoichiometry N [3]: 6.1
Kd [4]: 110 nM
Kd [5]: 1600 nM
Kd [6]: 260 nM
stoichiometry N [6]: 3.1
Kd [7]: 180 nM
stoichiometry N [7]: 3
kon [8]: 1.1e+06 M⁻¹ s⁻¹
K0.5 (Cin8 concentration at half-maximal light-scattering amplitude) [9]: 0.27 µM
koff [9]: 3.1 s⁻¹
kon [9]: 1e+06 M⁻¹ s⁻¹
B1: Cin8-His (S. cerevisiae kinesin-5 Cin8 motor domain, residues 70–535, with N-terminal His6 and TEV cleavage tags) (domain or fragment)
chain: ISINTTGDTGITAQMNAKRYTVDKVFGPGASQDLIFDEVAGPLFQDFIKGYNCTVLVYGMTSTGKTYTMTGDEKLYNGELSDAAGIIPRVLLKLFDTLELQQNDYVVKCSFIELYNEELKDLLDSNSNGSSNTGFDGQFMKKLRIFDSSTANNTTSNSASSSRSNSRNSSPRSLNDLTPKAALLRKRLRTKSLPNTIKQQYQQQQAVNSRNNSSSNSGSTTNNASSNTNTNNGQRSSMAPNDQTNGIYIQNLQEFHITNAMEGLNLLQKGLKHRQVASTKMNDFSSRSHTIFTITLYKKHQDELFRISKMNLVDLAGSENINRSGALNQRAKEAGSINQSLLTLGRVINALVDKSGHIPFRESKLTRLLQDSLGGNTKTALIATISPAKVTSEETCSTLEYASKAKNIKNKPQLGSFIMKDILVKNITMELAKIKSDLLSTKSKEGIYMSQDHYKNLNSDLESYKN

stoichiometry N [10]: 4
Kd [11]: 2 nM
Kd [12]: 590 nM
Kd [13]: 130 nM
stoichiometry N [13]: 4
Kd [14]: 1 nM
stoichiometry N [14]: 5.1
stoichiometry N [15]: 3 to 5
Kd [16]: 13 nM
B2: Cin8-trx (Cin8 motor domain, residues 70–535, fused to N-terminal thioredoxin (TrxA), His6, TEV cleavage and Arg9 tags) (domain or fragment)
chain: B1 chain

B3: Cin8-His (Cin8 motor domain) (Saccharomyces cerevisiae S288C) (protein)
chain: NEELNITVAVRCRGRNEREISMKSSVVVNVPDITGSKEISINTTGDTGITAQMNAKRYTVDKVFGPGASQDLIFDEVAGPLFQDFIKGYNCTVLVYGMTSTGKTYTMTGDEKLYNGELSDAAGIIPRVLLKLFDTLELQQNDYVVKCSFIELYNEELKDLLDSNSNGSSNTGFDGQFMKKLRIFDSSTANNTTSNSASSSRSNSRNSSPRSLNDLTPKAALLRKRLRTKSLPNTIKQQYQQQQAVNSRNNSSSNSGSTTNNASSNTNTNNGQRSSMAPNDQTNGIYIQNLQEFHITNAMEGLNLLQKGLKHRQVASTKMNDFSSRSHTIFTITLYKKHQDELFRISKMNLVDLAGSENINRSGALNQRAKEAGSINQSLLTLGRVINALVDKSGHIPFRESKLTRLLQDSLGGNTKTALIATISPAKVTSEETCSTLEYASKAKNIKNKPQLGSFIMKDILVKNIT
notes: motor domain residues 70-535; N-terminal His6 and TEV site tags kept; expressed in E. coli B834(DE3); monomeric in solution
Km [17, 18]: 29 ± 16 µM
kcat [17, 18]: 0.38 ± 0.04 s^−1 site^−1

B4: Cin8-His (Cin8 motor domain) (Saccharomyces cerevisiae S288C; DEL254-353/DEL32-69/INS253NNNNNSS) (protein)
chain: ISINTTGDTGITAQMNAKRYTVDKVFGPGASQDLIFDEVAGPLFQDFIKGYNCTVLVYGMTSTGKTYTMTGDEKLYNGELSDAAGIIPRVLLKLFDTLELQQNDYVVKCSFIELYNEELKDLLDSNSNGSSNTGFDGQFMKKLRIFDSSTANNTTSNSASSSRSNSRNSSPRSLNDLTPKAALLNNNNNSSSSRSHTIFTITLYKKHQDELFRISKMNLVDLAGSENINRSGALNQRAKEAGSINQSLLTLGRVINALVDKSGHIPFRESKLTRLLQDSLGGNTKTALIATISPAKVTSEETCSTLEYASKAKNIKNKPQLGSFIMKDILVKNITMELAKIKSDLLSTKSKEGIYMSQDHYKNLNSDLESYKN
notes: as for B3
Km ([17]; microtubule-stimulated): 45 ± 4 µM
kcat ([17]; microtubule-stimulated): 0.36 ± 0.22 s^−1 site^−1

From paper PMC5582858, “The yeast kinesin-5 Cin8 interacts with the microtubule in a noncanonical manner” (The Journal of Biological Chemistry, 2017)
